# In patent US20240040982, “CEREAL GRAIN WITH THICKENED ALEURONE” (Commonwealth Scientific and Industrial Research Organisation, published 2024):
# T1: TA1 (OsmtSSB-1a) (Oryza sativa)
# T1 chain: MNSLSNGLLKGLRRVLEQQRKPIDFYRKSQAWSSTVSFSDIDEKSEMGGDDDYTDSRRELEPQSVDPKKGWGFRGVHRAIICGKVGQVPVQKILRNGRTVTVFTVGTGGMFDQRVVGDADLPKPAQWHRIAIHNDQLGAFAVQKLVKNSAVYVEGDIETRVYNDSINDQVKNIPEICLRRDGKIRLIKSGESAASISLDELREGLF
# B1: 45-nt EMSA ssDNA probe (ssDNA)
# DNA: ACTCCCTCTCCCTTGCGGATTCGAATGGTAGTACATTCTCTTCGA
# Target: T1, TA1 (OsmtSSB-1a)
# Assay: EMSA; 2 ug protein, 750 amol probe, room temperature 10 min; competed by 2x, 20x, 200x unlabelled ssDNA
# Details: tags: N-terminal 6xHis (pET-30a), expressed in E. coli; label: 3' biotin (biotinylated CTP)
# Experimental: The affinity of purified 6×His-TA1 protein for ssDNA was determined using an EMSA (Thermo Cat. No. 20148X) as described in general terms by Reddy et al. (2001). A 45-nucleotide single-stranded oligonucleotide (SEQ ID NO:60) was labelled at the 3′ end with biotinylated CTP (Thermo Cat. No. 89818) according to the manufacturer's instructions. Recombinant 6×His-TA1 protein (2 μg) was added to 750 attomoles of biotin-labelled oligonucleotide and the mixture was incubated at room temperature for 10 min. A control sample lacked the 6×His-TA1 protein was applied to lane 1 in FIG. 11. Separate reactions were carried out in the presence of a 60-bp double-stranded DNA (dsDNA; control fragment from Thermo EMSA kit) to determine if the mobility shift was specific for ssDNA. Binding reaction products were separated by electrophoresis in a 5% native polyacrylamide gel in 0.5×TBE (Bio-Rad) and transferred to a nylon membrane (Bio-Rad). DNA bands were visualized using streptavidin-conjugated horseradish peroxidase (Thermo).
binder,measurement,value
B1,binding result,binds
